Literature values, collected in patent publication US7550436B2, “Compositions containing peptide and electrolyte excretion promoter and foods containing the same” (Kracie Pharma, Ltd., priority 2000, dated 2009).
No end group written: not given here.

Target: angiotensin converting enzyme (Homo sapiens, UniProt P12821)
Conditions: reported in JP-B-60-23085, JP-B-61-51562, JP-B-61-51564, JP-B-5-21092

Sequence of angiotensin converting enzyme (P12821 30-1306, species assumed): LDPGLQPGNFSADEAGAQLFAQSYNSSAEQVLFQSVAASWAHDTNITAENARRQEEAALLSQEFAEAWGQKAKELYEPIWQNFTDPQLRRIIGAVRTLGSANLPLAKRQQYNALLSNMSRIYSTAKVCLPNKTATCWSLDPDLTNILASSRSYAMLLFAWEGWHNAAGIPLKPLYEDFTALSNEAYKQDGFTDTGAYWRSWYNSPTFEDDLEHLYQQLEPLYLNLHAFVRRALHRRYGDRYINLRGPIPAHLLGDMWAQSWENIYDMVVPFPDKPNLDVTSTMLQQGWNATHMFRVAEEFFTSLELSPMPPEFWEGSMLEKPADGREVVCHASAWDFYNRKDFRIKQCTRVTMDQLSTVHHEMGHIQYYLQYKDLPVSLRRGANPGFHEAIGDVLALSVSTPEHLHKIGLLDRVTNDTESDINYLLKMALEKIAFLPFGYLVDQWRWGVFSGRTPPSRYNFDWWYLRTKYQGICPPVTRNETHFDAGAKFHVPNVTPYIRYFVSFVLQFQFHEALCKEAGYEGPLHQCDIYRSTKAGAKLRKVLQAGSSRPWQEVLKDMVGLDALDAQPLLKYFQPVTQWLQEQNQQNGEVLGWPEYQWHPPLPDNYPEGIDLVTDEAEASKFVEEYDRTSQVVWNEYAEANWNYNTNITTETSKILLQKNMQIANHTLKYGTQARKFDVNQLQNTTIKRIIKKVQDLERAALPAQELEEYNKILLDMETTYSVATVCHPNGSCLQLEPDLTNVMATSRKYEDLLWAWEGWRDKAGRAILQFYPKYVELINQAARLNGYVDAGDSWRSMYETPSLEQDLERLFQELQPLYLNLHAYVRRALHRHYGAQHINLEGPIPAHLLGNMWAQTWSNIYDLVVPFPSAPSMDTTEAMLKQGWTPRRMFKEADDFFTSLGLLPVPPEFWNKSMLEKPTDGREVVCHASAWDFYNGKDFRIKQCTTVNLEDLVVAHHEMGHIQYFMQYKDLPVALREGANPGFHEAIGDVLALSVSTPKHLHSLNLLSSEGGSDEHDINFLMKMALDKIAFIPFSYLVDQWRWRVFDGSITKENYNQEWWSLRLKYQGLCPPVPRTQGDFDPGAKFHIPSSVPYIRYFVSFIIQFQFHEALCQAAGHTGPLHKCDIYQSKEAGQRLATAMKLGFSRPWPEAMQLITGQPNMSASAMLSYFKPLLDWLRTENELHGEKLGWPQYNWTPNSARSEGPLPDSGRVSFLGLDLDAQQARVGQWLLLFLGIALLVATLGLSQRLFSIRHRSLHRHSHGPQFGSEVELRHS

| Substance | inhibitory activity to angiotensin converting enzyme (ACE) |
| --- | --- |
| AVPYPQR [Cβ7, ID No. 2, casein-origin peptide] | inhibitory activity |
| FFVAPFPEVFGK [Example C12, ID No. 1, casein-origin peptide] | inhibitory activity |
| TTMPLW [Example C6, ID No. 3, casein-origin peptide] | inhibitory activity |
